Measured values: PMC11475653

Conditions: ubiquitination at K45

Substance: AMBRA1: K45R
- degradation_or_half_life: decreases
